The values that follow come from paper PMC10611751 (2023).

The chains are these.
T1: Ankyrin-G 24 ANK repeats (residues 38-855) (UniProt O70511 38-855)
T1 chain: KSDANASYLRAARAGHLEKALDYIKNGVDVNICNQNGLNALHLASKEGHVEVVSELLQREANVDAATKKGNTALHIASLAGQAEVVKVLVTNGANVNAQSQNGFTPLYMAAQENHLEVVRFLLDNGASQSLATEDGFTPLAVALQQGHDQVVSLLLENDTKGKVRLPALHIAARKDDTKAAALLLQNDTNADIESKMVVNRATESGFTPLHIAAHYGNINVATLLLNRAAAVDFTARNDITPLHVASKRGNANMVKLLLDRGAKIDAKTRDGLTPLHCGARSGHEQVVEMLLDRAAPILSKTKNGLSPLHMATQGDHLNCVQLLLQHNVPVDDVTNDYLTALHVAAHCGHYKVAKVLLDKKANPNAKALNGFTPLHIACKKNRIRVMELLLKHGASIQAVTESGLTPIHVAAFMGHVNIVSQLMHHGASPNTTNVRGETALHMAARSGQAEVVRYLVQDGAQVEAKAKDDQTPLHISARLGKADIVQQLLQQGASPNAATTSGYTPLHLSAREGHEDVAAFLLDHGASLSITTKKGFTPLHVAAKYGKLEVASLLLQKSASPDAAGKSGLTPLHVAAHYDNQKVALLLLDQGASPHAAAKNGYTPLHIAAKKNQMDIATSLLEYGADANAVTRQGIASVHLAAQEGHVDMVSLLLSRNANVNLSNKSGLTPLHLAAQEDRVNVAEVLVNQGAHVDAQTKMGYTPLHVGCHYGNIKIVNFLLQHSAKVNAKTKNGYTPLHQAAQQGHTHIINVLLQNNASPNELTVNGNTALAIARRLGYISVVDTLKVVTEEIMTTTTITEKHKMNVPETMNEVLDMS

B1: full-length β-catenin 1-781 (natural protein)
chain: MATQADLMELDMAMEPDRKAAVSHWQQQSYLDSGIHSGATTTAPSLSGKGNPEEEDVDTSQVLYEWEQGFSQSFTQEQVADIDGQYAMTRAQRVRAAMFPETLDEGMQIPSTQFDAAHPTNVQRLAEPSQMLKHAVVNLINYQDDAELATRAIPELTKLLNDEDQVVVNKAAVMVHQLSKKEASRHAIMRSPQMVSAIVRTMQNTNDVETARCTAGTLHNLSHHREGLLAIFKSGGIPALVKMLGSPVDSVLFYAITTLHNLLLHQEGAKMAVRLAGGLQKMVALLNKTNVKFLAITTDCLQILAYGNQESKLIILASGGPQALVNIMRTYTYEKLLWTTSRVLKVLSVCSSNKPAIVEAGGMQALGLHLTDPSQRLVQNCLWTLRNLSDAATKQEGMEGLLGTLVQLLGSDDINVVTCAAGILSNLTCNNYKNKMMVCQVGGIEALVRTVLRAGDREDITEPAICALRHLTSRHQEAEMAQNAVRLHYGLPVVVKLLHPPSHWPLIKATVGLIRNLALCPANHAPLREQGAIPRLVQLLVRAHQDTQRRTSMGGTQQQFVEGVRMEEIVEGCTGALHILARDVHNRIVIRGLNTIPLFVQLLYSPIENIQRVAAGVLCELAQDKEAAEAIEAEGATAPLTELLHSRNEGVATYAAAVLFRMSEDKPQDYKKRLSVELTSSLFRTEPMAWNETADLGLDIGAQGEALGYRQDDPSYRSFHSGGYGQDALGMDPMMEHEMGGHHPGADYPVDGLPDLGHAQDLMDGLPPGDSNQLAWFDTDL
B2: E-cadherin 776-884–β-catenin complex (protein)
chain 1: not shown
chain 2: B1 chain
B3: E-cadherin CTD–β-catenin complex (complex)
chain 1: not shown
chain 2: B1 chain
B4: p120 catenin 324-938 (domain or fragment)
chain: MIGEEVPPDQYYWAPLAQHERGSLASLDSLRKGMPPPSNWRQPELPEVIAMLGFRLDAVKSNAAAYLQHLCYRNDKVKTDVRKLKGIPILVGLLDHPKKEVHLGACGALKNISFGRDQDNKIAIKNCDGVPALVRLLRKARDMDLTEVITGTLWNLSSHDSIKMEIVDHALHALTDEVIIPHSGWEREPNEDCKPRHIEWESVLTNTAGCLRNVSSERSEARRKLRECDGLVDALIFIVQAEIGQKDSDSKLVENCVCLLRNLSYQVHREIPQAERYQEALPTVANSTGPHAASCFGAKKGKDEWFSRGKKPTEDPANDTVDFPKRTSPARGYELLFQPEVVRIYISLLKESKTPAILEASAGAIQNLCAGRWTYGRYIRSALRQEKALSAIAELLTSEHERVVKAASGALRNLAVDARNKELIGKHAIPNLVKNLPGGQQNSSWNFSEDTVVSILNTINEVIAENLEAAKKLRETQGIEKLVLINKSGNRSEKEVRAAALVLQTIWGYKELRKPLEKEGWKKSDFQVNLNNASRSQSSHSYDDSTLPLIDRNQKSDKKPDREEIPMSNMGSNTKSLDNNYSTLNERGDHNRTLDRSGDLGDMEPLKGAPLMQKI
B5: E-cadherin 776-884–AnkG R1-24 complex (complex)
chain 1: not shown
chain 2: T1 chain
B6: E-cadherin CTD–AnkG R1-24 complex (complex)
chain 1: not shown
chain 2: T1 chain

Common to all, as to assay: ITC
(Isothermal titration calorimetry measures the heat released or taken up as one component is titrated into another.)

The target in assay [1] is E-cadherin CTD site-1, 3 to A (mouse, UniProt P09803 734-884, Y755A | Y756A | Y757A | Y861A | Y863A | W867A).
In assay [2] the target is E-cadherin CTD site-3 to A (mouse, UniProt P09803 734-884, Y861A | Y863A | W867A).
Assay [3] deals with E-cadherin CTD site-1 to A (mouse, UniProt P09803 734-884, Y755A | Y756A | Y757A).
Assay [4] deals with E-cadherin CTD site-2 to A (mouse, UniProt P09803 734-884, Y829A | Y837A).
The target of assay [5] is E-cadherin CTD site-1, 2, 3 to A (a total of 8 aromatic residue substitutions) (mouse, UniProt P09803 734-884, Y755A | Y756A | Y757A | Y829A | Y837A | Y861A | Y863A | W867A).
The target of assay [6] is E-cadherin CTD site-2, 3 to A (mouse, UniProt P09803 734-884, Y829A | Y837A | Y861A | Y863A | W867A).
The target in assay [7] is E-cadherin CTD site-1, 2 to A (mouse, UniProt P09803 734-884, Y755A | Y756A | Y757A | Y829A | Y837A).
Assay [8] concerns the target T1, Ankyrin-G 24 ANK repeats (residues …).
Assay [9] addresses B1.
The target in assay [10] is B1.

Like-named read-outs stand apart in the source and are kept apart here.

For orientation: Kd means the free concentration of one partner at which half of the binding sites on the other are occupied at equilibrium, for simple one-to-one binding. A higher Kd goes with weaker binding. With B1, the Kd in assay [1] was 98 nM; in assay [2], 110 nM; in assay [3] it was 56 nM; in assay [4], 4800 nM; in assay [5], 8100 nM; in assay [6], 1400 nM. In [7], this molecule yielded a dissociation constant (Kd) of 3600 nM.
On to B2, for which the Kd in assay [8] is 1200 nM.
Molecule B3 gave a dissociation constant (Kd) in [8] of 600 nM.
Take B4: the Kd was more than 30000 nM in assay [1]; 2900 nM in [2]; more than 50000 nM in assay [3]; 2800 nM in [4]; more than 50000 nM in [5]; 1800 nM in [6]. This molecule also came in with a dissociation constant (Kd) in assay [7] of more than 70000 nM.
B5 showed a dissociation constant (Kd) in assay [9] of 80 nM.
In assay [10], B6 yielded a Kd of 98 nM.
